From publication PMC7425896, “Polypeptides derived from α-Synuclein binding partners to prevent α-Synuclein fibrils interaction with and take-up by cells” (PLoS ONE, 2020)

Biological target: α-Synuclein fibrils (preformed fibrils of recombinant human wild-type αSyn) (human, UniProt P37840 1-140)
Experiment: co-sedimentation; as a4 with a range of peptide concentrations (0–200 μM) and αSyn fibrils (100 μM); bound peptide by reversed phase chromatography
Conditions: both partners purified

| Kd [µM] | Binder |
| --- | --- |
| > 100 | GILNVSAVDKSTGKENKITITN (Hsc70 residues 484–505; source: synthetic peptide; bought: GL Biochem Ltd) [Hsc-10 (Hsc70-derived peptide)] |
| > 100 | TKQTQTFTTYSDNQPGVLIQVYE (Hsc70 residues 422–444; source: synthetic peptide; bought: GL Biochem Ltd) [Hsc-6 (Hsc70-derived peptide)] |
